# Results published in the nanobody polyreactivity screen of Harvey et al. (2022).
# Experiment: yeast display, Sf9 membrane polyspecificity reagent, FACS + sequencing; frameworks hold sequencing errors
# Procedure, shortened: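 A nanobody's polyreactivity label depends on the gate it was sorted from. Yeast display cells were stained with 10% biotinylated, detergent-solubilized Sf9 membrane reagent for 1 hour at 4 °C, enriched on streptavidin microbeads and sorted by FACS. The low and high (top ~1%) gates were set on anti-HA fluorescence for expression and streptavidin fluorescence for reagent binding.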
row,Sequence,polyreactivity (PSR sort gate)
1,QVQLEESGGGLVQAGGSLRLSCAASGFTIGVYAMGWYRQAPGKERELVAAISARGGSTYYADSVKGRFTISRDNAKKTVYLQMNSLKPEDTAVFYCAVVLKYVSADQMDYWGQGTQVTVSS,high polyreactivity
2,QVQLVESGGGLVQAGGSLRLSCAASGSIFDYYTMGWYRQAPGKERELVASITQSGGSTYYADSVKGRFTISRDNAKNTVYLQMNSLIPEDTAVYYCAADFSIVKMDYWGQGTQVTVSS,low polyreactivity
3,QVQLEESGGGLFQAGGSLRLSCAASGSTFVSNAMGWYRQAPGKDRELVAAISSSGGRTSYADSVKGRFTISRDNAKNTVYLQMNSLKPEDTAVYYCNRVSPGPDADLEFDYWGQGTQVTVSS,low polyreactivity
4,QVQLVESGGGLVQAGGSLRLSCAASGFTFGYNAMGWYRQTPGKERELVAVITQSGGRTYYADSVKGRFTISRDNAKNTVYLQMNSLKPEDTAVYYCAARYRLPPYYYWGQGTQVTVSS,high polyreactivity
5,QVQLVESGGGLVQAGGSLRLSCAASGSIISRNAMGWYRQAPGKEREFVAAITRSGGSTSYADSVKGRFTISRDNAKSTVYLQMNSLKPEDTAVYYCAAAQKYRKEFDSWGQGTQVTVSS,high polyreactivity
6,QDQLVESGGGLVQAGGSLRLSCAASGSTFSKNTMGWYRQAPGKERELVAAITTRGSSTYYADSVKGRFTISRDNAKNTVYLQMNSLKPEDTAVYYCNAPYRVTGGRYRWYDYWGQGTQVTVSS,high polyreactivity
7,QVQLVESGGGLVQAGGSLRLSCAASGSTFSYSTMVWYRQPPGKERELVATISRRGASTYYADSVKGRFTISRDNAKNTVYLQMNSLKPEDTAVYYCAKSYYYGRSATRPEYDYWGQGTQVTVSS,high polyreactivity
8,QVQLVESGGGLVQAGGSLRLSCAASGITFGLYVMGWYRQAPRKERELVAANSSGGSTNYADSVKGRFTISRDNAKNPVYLQMNSLKPEDTAVYYCNADRLRPEYDYWGQGTQVTVSS,low polyreactivity
9,QVQLVESGGGLVQAGGSLRLSCAASGSTFIAYTMGWYRQAPGKERELVAAISGTGGTTYADSVKGRFTISRDNAKNTVYLQMNSLKPEDTAVYYCAAQYRYTYWGQGTQVTVSS,low polyreactivity
10,QVQLVDSGGGLVQAGGSLRLSCAASGSIFYVNAMGWYRQAPGKERELVASITQSGGSTYYADSVKRRFTISRDNAKNTVDLQMNILKPEDTSVYYCNADIHVYPTRTRYYYWGQGTQVTVSS,low polyreactivity
11,QVQLVESGGGLVQAGGSLRLSCAASGSIFYHYAMGWSRQAPGKERELVAAITRSGGSTYYADSVKGRFTISRDNAKHTVYLQMNSLKPEDTAVYYCAKDPDSYNFLTSNWYDYWGQGTQVTVSS,low polyreactivity
12,QVQLVESGGGLVQAGGSLRLSCAASGNIFLTYAMGWYRQAPGKERELVAAISRGGRTYYADSVKGRFTISRDNAKNTVYLQMNRLKPEDTAVYYCNVQPDRISRYDYWGQGTQVTVSS,high polyreactivity
13,QVQLVESGGGLVQAGGSLRLSCAASGSTFWPYAMGWYRQAPGKERELVATIRWSGGSTSYADSVKGRFTISRDNAKNTVYVQMNSLKPEDTAVYYCAARDFHYYRFKTYGYWGQGTQVTVSS,high polyreactivity
14,QVQLVESGGGLVQAGGSLRLSCAASGSTFVGYAMGWYRQAPGKEREVVAAISGSGTSTYYADSVKGRFTISRDNAKNTVYLQMNSLKPEDTAVYYCNSDPIFVYSSYNYWGQGTQVTVSS,low polyreactivity
15,QVQLVESGGGLVQAGGSLRLSCAASGSTFRRYAMGWYRQAPGKEREISTSDGSTYYADSVKGRFTISRDNAKNTVYLQMNSLKPEDTAVYYCAADGYRQLIEDITDDYWGQGTQVTVSS,low polyreactivity
16,QVQLVESGGCLVQAGGSLRLSCAASRFTFTYYAMGWYRHAPGKESELVAAITRRGGRTYYAYSVKGRFTISRDNAKNTVYLQMNSLKPEDTAVYYCNADEYGGSTGRKGRYNYWGQGTQVTVSS,low polyreactivity
17,QVQLVESGVGLGQAGGSLRLSCAASGRIFSRYAMGWYRPAPGKERELVATITRRGGSTSYADSVKGRFTISRDNAKNTVFLQMNCLKPEDTAVYYCAAQSFYGIYYGKQDYDYWGQGTQVTVSS,high polyreactivity
18,QVQLVESGGGLVQAGGSLRLSCAASGSNFLYSAMGWYRQAPGKERELVAVISWSGVSTYYADSVKGRFTISRDNAKNTVYLQMNSLKPEDTAVYYCNTGNHYIRTYGYWGQGTQVTVSS,low polyreactivity
19,QVQLVESVVGLVQARGSLRLSSAATGRTFSRYAMGWYRQAPGKESELVATISWSGTSKYYADSVKGRFTISRDNAKNTVYLQMNSLKPEETAVYYCDAYYLTRFSILYYYWGLGTQVTVSS,high polyreactivity
20,QVQLVESGGGLVQAGGSLRLSCAASGNTFYPNAMGWYRQAPGKERELVAAITTSGGTTYYADSVKGRFTISRDNAKNTVYLQMNSLKPEDTAVYYCAAYWSRDKYDYWGQGTQVTVSS,low polyreactivity
21,QVQLVESGGGLVQAGGSLRLSCAASGSTFNVYAMGWYRQAPGKERELVAGIRDSDGSTNYADSVKARFTISRDNAKNTVYLQMNSLKQEDPAVYYCAADLYDINWSVWLDYWGQGTQVTVSS,low polyreactivity
22,QVQLVESGGGLVQAGGSLRFSCAASGSIFITYAMGWSRQAPGKERELVAAIRDSGDRTYYADSVKGRFTISRDNAKNTVYLQMNSLKPEDTAVYYCNARWQEPLKYDYWGQGTQVTVSS,low polyreactivity

row,Sequence,polyreactivity (PSR sort gate)
1,QVQLVESGGGLVQAGGSLRLSCAASGRTFWYYAMGWYRQAPGKEREFVAAISWSGGSTYYADSVKGRFTISRDNAKNTVYLQMNSLKPEDTAVYYCAADRYDSSQFYYWGQGTQVTVSS,low polyreactivity
2,QVQLVESGGGLVQAGGSLRLSCAASGFTFLNYAMGWYRQAPGKERELVAAISFSTGRTYYADSVKGRFTISRDNAKNTVYLQMNSLKPEDTAVYYCYVLHRSDSGYYYRYDYWGQVTQVTVSS,high polyreactivity
3,QVQLVESGGGLVQARGSLRLSCAASGSTFYPYAMGWYRQAPGKERELVAAISSGGSTSYADSVKGRFTISRDNAKNTVYLQMNSLKPEDTAVYYCNASSPGAVPVYDYDYWGQGTQVTVSS,low polyreactivity
4,QVQLVESGGGLVQAGGSLRLSCAASGRTFYVYAMGWYRQAPGKERELVAAISKSGGSTYYADSVKGRFTISRDNAKNTVYLQMNSLKPEDTAVYYCAARKSDPRTKLYNYWGQGTQVTVSS,high polyreactivity
5,QVQLVESGGGLVQAGGSLRLSCAASGSTFAANAMGWYRQAPGKERELFAVIRRGGSTTYADSVKGRFTISRDNAKNTVYLQMNSLKPEDTEVYYCNARVTLGRPLFTYLVRYEYWGQGTQVTVSS,high polyreactivity
6,QVQLVESGGGLVQAGGSLRLSCAASGSTIISYAMGWYRQAPGKERELVAAISSGGGRTSYADSVKGRFTISRDNAKNTVYLQMNSLKPEDTAVYYCNTKQLPYAEGYWGQGTQVTVSS,low polyreactivity
7,QVQLVESGGGLVQAGGSLRLSCAASGSIFDGYAMGWYRQAPWKERELVAAISYTGGRKYYADSVKGRFTISRDNAKNTVYLQMNSLKPEDTAVYYCAARYHLGRSPRYYRGQGTQVTVSS,high polyreactivity
8,QVQLVESGGGLVQAGGSLRLSCAASGFIFRRYVMGWTRQAPGKERELVAAISNGGGRTYYADSVKGRFTISRDNAKNTVYLQMNSLKPEDTAVYYCAAYPRGPLAPDYDYWGQGTQVTVSS,high polyreactivity
9,QVQLVESGGGLVQAGGSLRLSCAASGNTFDFYAMGWYRQAPGKEREFVAAISNGGSTTYADSVKGRFTISRDNAKNTVYLQMNSLKPEDTAVYYCAADPRNAEYDDASMDYWGQGTQVTVSS,high polyreactivity
10,QVQLVESGGGLVQAGGSLRLSCAASGFTFTRNAMGWYRQAPGKERELVAAINFRSDRTFYADSVKGRFTISRDNAKNTVYLQMNSLKPEDTAVYYCAAQVGRGYEVYPVYKYGYWGQGTQVTVSS,high polyreactivity
11,QVQLVESGGGLVQAGGSLRLSCAASGFTFPGYAMGWYRQAPGKERELVAAISSSGGSTYYADSVKGRFTISRDNAKNTVYLQMNSLKPEDTAVYYCAARHGQSWQWLEYDYWGQGTQVTVSS,low polyreactivity
12,QDQLVESVGGLVQAGGSLRLSCAASGSTIVRNAMGWYRQPPGKERELVAAISVDSGSTYYADSVKGRFTISRDNAKNTVYLQMNSLKPEDTAVYYCAADGTRGQEYDYWGQGTLVTVSS,low polyreactivity
13,QVQLVESGGGLVQAGGSLRLSCAASGIIFRYNAMGWYSQAPGKDRELVAAITYRGGSTRYADSVKGRFTISRDNAKNTVYLQMNSLKPEDTAVYYCNAQRRTYIYDYWGQGTQVTVSS,high polyreactivity
14,QVQLVESAGGLVQEGGSLRLICAASGSIFGGYAMGWYRQAPGKERELVAAISWSSSTTYYADSVKGRFTISRDHAMNTVYLQLNSLKPEDTAVYDCATGIYPQTSDYDYWGQGTQVTVSS,low polyreactivity
15,QVQLVESGGGLVQAGGSLRLSCAASGRIFRKYTMGWYRQAPGKERELVAAITGTGGSTYYADSVKGRFTISRDNAKNTVYLQMNSLKPEDTAVYYCAAVARFRYSDMYYWGQGTQVTVSS,high polyreactivity
16,QVQLVESGGRKVQAGGSLRLICAASGSIFYAYTMGRYRQAPGKERELSTYADSVKGRFTISRDNAKNTVYLQMNSLKPEDTAVYYCNARFYKKTLSYRVKYRMEYWGQGTQVTVSS,low polyreactivity
17,QVQLVESGGGLVQAGGSLRLSCAASGSTFGWYALGWYRQAPGKERELVAAIRSNGGSTYYADSVKGRFTLSRDNAKNTVYLQINSLKPEDTAVYYCAARGSPSKHHWYDYWGQGTQVTVSS,low polyreactivity
18,QVQLVESGGRLVQAGGSLRLSCAASGSIFYYYAMGWYRQAPGKERELVAAINGGDTYYADSVKGRFTISRDNAKNTVYLQMNSLKPEDTAVYYCAAEGVTVEWDYDYLGQGTQVTVSS,low polyreactivity
19,QVQLVESGGGLVQAGGSLRLSCAASGRTLVDYAMGWYRQAPGKERELVAAINFSGGSTNYADSVKGRFTISRDNAKNTVYLQMNSLKPEDTAVYYCNKEGRPDRDYWGQGTQVTVSS,low polyreactivity
20,QVQLVESGGGLVQAGGSLRLSCAASGSIFTIYAMGWYRQAPGKERELVATITGIADSTYYADSVKGRFTISRDNAKNTVYLQMNSLKPEDTAVYYCAADKYVAEYDYWGQGTQVTVSS,low polyreactivity
21,QVQLVESGGGLVQAGGSLRLSCAASGSIFSSNAMGWYIQAPGKERELVAAITSGGSTTYADSVKGRFTISRDNAKNTVNLQMNSLKPEDTAVYYCAADPVYRYYHGWTYLDYDYWGQGTQVTVSS,low polyreactivity
